Laboratory results taken from patent publication US6682736.

Experiments:
[1] = target: T1, CTLA-4-IgG1 fusion protein (human); test: BIAcore; CTLA-4-Ig on chip, 397.8 RU
T1 construct: Mature extracellular domain of human CTLA-4 fused to human IgG1 constant domains, no hinge, covalent dimer through cysteine 120; The oncostatin M signal peptide is cleaved; also called OM-CTLA4-IgG1 Fusion Protein; CTLA-4-Ig fusion protein

[2] = target: T1, CTLA-4-IgG1 fusion protein; test: BIAcore; CTLA-4-Ig on chip, 504.5 RU
[3] = target: T1, CTLA-4-IgG1 fusion protein; test: BIAcore; CTLA-4-Ig on chip, 878.7 RU
CTLA-4-Ig(G4) [4] = target: T2, CTLA-4-Ig(G4) (UniProt P16410 37-161, limits assumed); test: competition ELISA: CTLA-4-Ig(G4) to coated B7.2-Ig(G1); n = 3
T2 construct: Bought (Repligen, Inc.); not shown: IgG4 portion of the bought fusion protein

[5] = target: T1, CTLA-4-IgG1 fusion protein; test: BIAcore; CTLA-4-Ig on chip, 457.2 RU
CTLA-4-Ig(G4) [6] = target: T2, CTLA-4-Ig(G4); test: competition ELISA: CTLA-4-Ig(G4) to coated B7.1-Ig(G1); n = 2
[7] = target: T1, CTLA-4-IgG1 fusion protein; test: selectivity ELISA, antibody 1 µg/ml; CTLA-4/Ig over CD28/Ig; n = 3
[8] = target: T1, CTLA-4-IgG1 fusion protein; test: selectivity ELISA, antibody 1 µg/ml; CTLA-4/Ig over B7.2/Ig; n = 3
CTLA-4-Ig(G1) = target: T3, CTLA-4-Ig(G1) (UniProt P16410 37-161, limits assumed); test: IGEN ECL bead assay, antibody 1 µg/ml; CTLA-4-Ig(G1) over CD28-Ig(G1); n = 2
T3 construct: also called CTLA4 (IGEN assay); not shown: IgG1 portion

[9] = target: T1, CTLA-4-IgG1 fusion protein; test: selectivity ELISA, antibody 1 µg/ml; CTLA-4/Ig over CD44/Ig; n = 3

T2 sequence (P16410 37-161 limits assumed): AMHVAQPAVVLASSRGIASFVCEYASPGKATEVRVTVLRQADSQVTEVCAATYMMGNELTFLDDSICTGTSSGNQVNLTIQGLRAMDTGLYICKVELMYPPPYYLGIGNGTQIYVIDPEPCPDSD
T1 sequence (chain, as listed by the source): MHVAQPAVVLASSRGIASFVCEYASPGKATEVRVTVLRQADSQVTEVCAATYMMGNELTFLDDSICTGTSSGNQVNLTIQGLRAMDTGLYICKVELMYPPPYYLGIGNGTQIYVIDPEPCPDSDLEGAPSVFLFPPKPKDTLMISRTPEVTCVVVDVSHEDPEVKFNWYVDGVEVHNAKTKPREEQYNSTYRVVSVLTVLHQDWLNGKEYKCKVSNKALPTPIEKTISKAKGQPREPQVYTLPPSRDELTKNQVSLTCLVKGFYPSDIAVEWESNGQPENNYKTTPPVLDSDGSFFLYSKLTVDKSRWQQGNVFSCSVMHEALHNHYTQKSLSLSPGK
T3 sequence (P16410 37-161 limits assumed): as the sequence (P16410 37-161 limits assumed) above

B1: 2.1.3 (antibody, human IgG4, V domains shown)
VH: SGPGLVKPSQILSLTCTVSGGSISSGGHYWSWIRQHPGKGLEWIGYIYYIGNTYYNPSLKSRVTISVDTSKNQFSLKLSSVTAADTAVYYCARDSGDYYGIDVWGQGTTVTVSS
VL: SPDFQSVTPKEKVTITCRASQSIGSSLHWYQQKPDQSPKLLIKYASQSFSGVPSRFSGSGSGTDFTLTINSLEAEDAATYYCHQSSSLPLTFGGGTKVEIKR
[1]
  Ka: 9e+08 M⁻¹
  Kd: 1.17 nM
  koff: 0.0013 s⁻¹
  kon: 1.11e+06 M⁻¹ s⁻¹
[2]
  Ka: 9e+08 M⁻¹
  Kd: 1.12 nM
  koff: 0.00131 s⁻¹
  kon: 1.17e+06 M⁻¹ s⁻¹
[3]
  Ka: 1.3e+09 M⁻¹
  Kd: 0.772 nM
  koff: 0.000959 s⁻¹
  kon: 1.24e+06 M⁻¹ s⁻¹

B2: 4.10.2 (antibody, human IgG2, V domains shown)
VH: GVVQPGRSLRLSCVASGFIFSSHGIHWVRQAPGKGLEWVAVIWYDGRNKDYADSVKGRFTISRDNSKNTLYLQMNSLRAEDTAVYYCARVAPLGPLDYWGQGTLVTVSS
VL: SPGTLSLSPGERATLSCRASQSISSNFLAWYQQKPGQAPRLLIYRPSSRATGIPDSFSGSGSGTDFTLTISRLEPEDFALYYCQQYGTSPFTFGPGTKVDIKR
notes: Fully human IgG2 kappa (hybridoma); also called CT-4.10.2
[2]
  Ka: 2.2e+09 M⁻¹
  Kd: 0.455 nM
  koff: 0.00043 s⁻¹
  kon: 940000 M⁻¹ s⁻¹
CTLA-4-Ig(G4) [4]
  IC50: 1.5 nM
[5]
  Ka: 1.4e+09 M⁻¹
  Kd: 0.721 nM
  koff: 0.000505 s⁻¹
  kon: 700000 M⁻¹ s⁻¹
[3]
  Ka: 3.9e+09 M⁻¹
  Kd: 0.254 nM
  koff: 0.000253 s⁻¹
  kon: 1e+06 M⁻¹ s⁻¹
CTLA-4-Ig(G4) [6]
  IC50: 3.39 nM

B3: 3.1.1 (antibody, V domains shown)
VH: GVVQPGRSLRLSCAASGFTFSSYGMHWVRQAPGKGLEWVAVIWYDGSNKYYADSVKGRFTISRDNSKNTLYLQMNSLRAEDTAVYYCARGARIITPCMDVWGQGTTVTVSS
VL: QSPSSLSASVGDRVTITCRASQSINTYLIWYQQKPGKAPNFLISATSILQSGVPSRFRGSGSGTNFTLTINSLHPEDFATYYCQQSYSTPFTFGPGTKVDIKR
notes: also called CT-3.1.1
[1]
  Ka: 4.4e+09 M⁻¹
  Kd: 0.228 nM
  koff: 0.000207 s⁻¹
  kon: 910000 M⁻¹ s⁻¹
[7]
  selectivity ratio CTLA4/CD28: > 500 :1
[2]
  Ka: 5.5e+09 M⁻¹
  Kd: 0.182 nM
  koff: 0.000172 s⁻¹
  kon: 950000 M⁻¹ s⁻¹
[8]
  selectivity ratio CTLA4/B7.2: > 500 :1
CTLA-4-Ig(G4) [4]
  IC50: 0.45 nM
CTLA-4-Ig(G1)
  selectivity ratio CTLA4/CD28: > 500 :1
[5]
  Ka: 4.4e+09 M⁻¹
  Kd: 0.227 nM
  koff: 0.000165 s⁻¹
  kon: 730000 M⁻¹ s⁻¹
[3]
  Ka: 1.07e+10 M⁻¹
  Kd: 0.093 nM
  koff: 9.6e-05 s⁻¹
  kon: 1.04e+06 M⁻¹ s⁻¹
[9]
  selectivity ratio CTLA4/CD44: > 500 :1
CTLA-4-Ig(G4) [6]
  IC50: 0.63 nM
